Among the data in patent US20090156542 are Kd values, retold here.

The target of data set [1] is biotinylated human D-MCP-1 (mirror-image D-protein) (Homo sapiens) (UniProt P13500). In words: pulldown.
Data set [2] addresses biotinylated murine D-MCP-1 (mirror-image D-protein) (Mus musculus) (UniProt P10148). In words: pulldown. As to conditions: subnanomolar.
Data set [3] addresses human MCP-1 (CCL2, natural L-form) (Homo sapiens) (UniProt P13500). Kind of data set: SPR. Particulars: L-RNA, 37 C, 1 mM Mg, 1 mM Ca.
[4] abbreviates: direct or competitive pull-down.

Sequence of biotinylated murine D-MCP-1 (mirror-image D-protein) (Mus musculus) (P10148 24-99): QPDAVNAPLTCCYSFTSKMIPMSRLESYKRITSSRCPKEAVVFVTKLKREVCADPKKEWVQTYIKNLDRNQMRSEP
Sequence of biotinylated human D-MCP-1 (mirror-image D-protein) (Homo sapiens) (P13500 24-99): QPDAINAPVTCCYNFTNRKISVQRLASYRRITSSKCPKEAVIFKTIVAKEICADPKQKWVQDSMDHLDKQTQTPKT
Sequence of human MCP-1 (CCL2, natural L-form) (Homo sapiens) (P13500 24-99): as above

In the case of “ACGCACGUCCCUCACCGGUGCAAGUGAAGCCGUGGCUCUGC [D-180-D1-012]”, in data set [1] (setting [4]), the Kd – broadly, the constant that tells how readily two partners part at equilibrium – was less than 1 nM. “ACGCACGUCCCUCACCGGUGCAAGUGAAGCCGUGGCUCUGCGU [D-180-D1-002]” came in with a Kd in data set [1] (setting [4]) of less than 1 nM.

On to “AGCGUGCCAGUGUGAUGGGGGGGCGCGACCCAUUUUACACGCU [D-176-C9trc]”, for which the Kd in data set [1] (Type 1B) worked out at 5 nM. With “AGCGUGCCCGGUGUGGUAGGGGGGCGCGACCUACAUUUGCACGCU [D-176-E10trc]”, in data set [1] (Type 1A), the Kd was found to be 5 nM.

Regarding “CGCACGUCCCUCACCGGUGCAAGUGAAGCCGUGGCUCUGCG [D-180-D1-035]”, the Kd in data set [1] (setting [4]) was less than 1 nM. Take “CUGGUUACCGAGGGGGCGUCGUUGGAGUUUGGUUGGUUGUCACCAG [D-189-G7-002]”: the dissociation constant Kd in data set [2] (stated for derivatives) was less than 1 nM. “GAGAUGGCGACAUUGGUUGGGCAUGAGGCGAGGCCCUUUGAUGAAUCCGCGGCCAUUC [D-188-A3-001]”: the Kd in data set [2] was less than 1 nM.

“GAUGGCGACAUUGGUUGGGCAUGAGGCGAGGCCCUUUGAUGAAUCCGCGGCCAUUC [D-188-A3-004]”: in data set [2] (stated for derivatives), the dissociation constant (Kd) is less than 1 nM. In the case of “GCACGUCCCUCACCGGUGCAAGUGAAGCCGUGGCUCUGCG [D-NOX-E36 (D-180-D1-036)]”, the Kd was 0.146 nM in data set [1] (37 C, selection buffer 1 mM Mg, 1 mM Ca) and 0.89 nM in data set [1] (room temperature, selection buffer 1 mM Mg, 1 mM Ca). On to “GCACGUCCCUCACCGGUGCAAGUGAAGCCGUGGCUCUGCG [NOX-E36 (180-D1-036)]”, for which the dissociation constant (Kd) in data set [3] (PioneerF1 chip) worked out at 0.89 nM. In data set [1] (setting [4]), “GCACGUCCCUCACCGGUGCAAGUGAAGCCGUGGCUCUGCGU [D-180-D1-011]” gave a dissociation constant Kd of less than 1 nM.

With “GCCGGCUACCGAGGGGGCGUCGUUGGAGUUUGGUUGGUUGUCGCCGGC [D-189-G7-008]”, the Kd in data set [2] (stated for derivatives) is less than 1 nM.

As to “GCCGGUUACCGAGGGGGCGUCGUUGGAGUUUGGUUGGUUGUCACCGGC [D-189-G7-007]”, the Kd in data set [2] (stated for derivatives) is less than 1 nM. Same read-out and setting: in the case of “GCGCGUACCGAGGGGGCGUCGUUGGAGUUUGGUUGGUUGUCCGCGC [D-189-G7-010]” it was less than 1 nM. For the sequence “GCUGGUUACCGAGGGGGCGUCGUUGGAGUUUGGUUGGUUGUCACCAGC [D-189-G7-001]”, the Kd in data set [2] is less than 1 nM. As for “GGCGACAUUGGUUGGGCAUGAGGCGAGGCCCUUUGAUGAAUCCGCGGCCAUU [D-188-A3-006]”, the Kd in data set [2] (stated for derivatives) was less than 1 nM. Turning to “GGCGACAUUGGUUGGGCAUGAGGCGAGGCCCUUUGAUGAAUCCGCGGCCAUUC [D-188-A3-005]”, the Kd in data set [2] (stated for derivatives) is less than 1 nM.

In data set [2] (stated for derivatives), “GGGCCUACCGAGGGGGCGUCGUUGGAGUUUGGUUGGUUGUCGGCCC [D-189-G7-012]” gave a Kd of less than 1 nM. For “GGGCGUAGUGAGAAACUACCAACGACUGGCUAGAGCCGGCCC [181-A2-018]”, in data set [3] (CM4 chip), the Kd came out at 0.37 nM. As for “GUGCGCGUAGUUAAAAACUACCAGCGACUGGCUAGAGCCGGCGCAC [D-178-D5-030]”, the dissociation constant (Kd) in data set [1] (setting [4]) was determined as 0.5 nM. On the same count and under the same terms, in the case of “GUGCUGCGUAGUGAGAAACUACCAACGACUGGCUAGAGCCGGCAGCAC [D-181-A2]” it was 0.1 nM; in that of “GUGCUGCGUAGUUAAAAACUACCAGCGACUGGCUAGAGCCGGCAGCAC [D-178-D5]”, 0.5 nM.

As for “UGGUUACCGAGGGGGCGUCGUUGGAGUUUGGUUGGUUGUCACCA [D-189-G7-003]”, the Kd in data set [2] (stated for derivatives) was less than 1 nM.
